Changes are numbered by the printed parent chain.
T1: recombinant human RSPO3 (human, UniProt Q9BXY4 22-272)
T1 construct: also called rhRSPO3; hRSPO3
T1 sequence: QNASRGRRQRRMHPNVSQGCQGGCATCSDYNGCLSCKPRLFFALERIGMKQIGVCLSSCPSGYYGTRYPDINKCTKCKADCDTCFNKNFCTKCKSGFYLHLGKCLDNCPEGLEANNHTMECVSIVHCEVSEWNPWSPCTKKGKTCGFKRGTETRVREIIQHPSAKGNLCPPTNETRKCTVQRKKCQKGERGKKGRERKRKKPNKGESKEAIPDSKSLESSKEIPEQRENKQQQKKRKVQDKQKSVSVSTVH

T2: cynomolgus RSPO3 (cynomolgus, UniProt A0A2K5UTQ7 22-273)
T2 construct: also called cynoRSPO3; rcynoRSPO3
T2 sequence: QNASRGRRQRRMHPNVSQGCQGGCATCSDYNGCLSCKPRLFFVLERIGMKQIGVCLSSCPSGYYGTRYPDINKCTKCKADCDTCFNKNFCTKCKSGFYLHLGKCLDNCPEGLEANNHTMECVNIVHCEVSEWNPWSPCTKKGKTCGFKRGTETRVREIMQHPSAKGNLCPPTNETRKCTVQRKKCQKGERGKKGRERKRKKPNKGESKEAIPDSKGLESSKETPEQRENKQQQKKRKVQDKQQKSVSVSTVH

T3: mouse RSPO3 (mouse, UniProt Q2TJ95 22-277, limits assumed)
T3 construct: also called mRSPO3; murine RSPO3
T3 sequence (looked up): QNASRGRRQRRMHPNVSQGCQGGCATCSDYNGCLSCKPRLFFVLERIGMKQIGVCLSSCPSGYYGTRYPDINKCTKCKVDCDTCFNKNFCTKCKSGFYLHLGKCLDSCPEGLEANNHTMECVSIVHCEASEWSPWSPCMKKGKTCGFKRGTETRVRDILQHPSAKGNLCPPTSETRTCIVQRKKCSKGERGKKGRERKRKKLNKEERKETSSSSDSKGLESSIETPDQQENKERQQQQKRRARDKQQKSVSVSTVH

T4: human RSPO3 with C-terminal HA tag, stably expressed in 293 cells (human, UniProt Q9BXY4 22-272)
T4 construct: Whole open reading frame expressed in HEK-293 cells (high, medium, low); FFPE pellets; also called hRSPO3; RSPO3 Hi
T4 sequence: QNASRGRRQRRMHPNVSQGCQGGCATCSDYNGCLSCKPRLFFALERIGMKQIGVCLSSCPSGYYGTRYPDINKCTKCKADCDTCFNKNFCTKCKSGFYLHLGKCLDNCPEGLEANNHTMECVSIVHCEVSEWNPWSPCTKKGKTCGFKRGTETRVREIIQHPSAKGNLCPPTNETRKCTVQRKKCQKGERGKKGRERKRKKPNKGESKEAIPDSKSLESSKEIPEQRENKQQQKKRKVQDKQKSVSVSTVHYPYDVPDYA

T5: FLAG-tagged human RSPO3 (Genentech) (human, UniProt Q9BXY4 22-272)
T5 construct: also called hRSPO3; RSPO3 coated plates; not shown: FLAG tag
T5 sequence: T1 sequence

B1: Fab 5D6 (Fab, V domains shown)
VH: EVQLQESGPSLVKPSQTLSLTCSVTGDSITSGYWNWIRKFPGNKFEYMGYISYSGKTYQNPSLKSRISITRDTSKNQYHLQLNSVTTEDTATYYCATYYGYGGPWFAYWGQGTLVTVSA
VL: DIVLTQSPSSMYASLGERVTITCKASQDIDSYLSWFQQKPGKSPKTLIYLTNRLVDGVPSRFSGSGSGQDYSLTISSLEYEDMGIYYCLHYDEFPLTFGAGTKLEIK
notes: Fab expressed in E. coli for crystallography; also called 5D6 Fab
B2: 21C2 (antibody, V domains shown)
VH: QVQLQQSGAELVRPGVSVKISCKGSGYTFTDYVIHWVKQSHAKSLEWIGVITTYYGDASYNQKFKGKATMTVDKSSSTAYMELARLTSEDSAIYYCARGAYGNSPSYWYFDVWGAGTSVTVSS
VL: DIVLTQSPASLTVSLGQRATISCRASESVDSYGNTFMHWYQQKPGQPPKLLIYLASNLESGVPARFSGSGSRTDFTLTIDPVEADDAATYYCQQNNEDPYTFGGGTKLEIK
notes: also called monoclonal antibody 21C2
B3: hu5D6v4.3 (Fab, V domains shown)
VH: EVQLVESGPGLVKPSETLSLTCTVSGDSITSGYWNWIRQPPGKGLEWIGYISYSGKTYQNPSLKSRITISRDTSKNQFSLKLSSVTAADTAVYYCATYYGYGGPWFAYWGQGTLVTVSS
VL: DIQMTQSPSSLSASVGDRVTITCKASQDIDSYLSWFQQKPGKAPKTLIYLTNRLVDGVPSRFSGSGSGTDYTLTISSLQPEDFATYYCLHYDEFPLTFGQGTKVEIK
notes: Humanized 5D6 variant; also called v1+T69 (LC)+(W47+I48+F78 (HC))
B4: 4H1 (Fab, V domains shown)
VH: EVKLVESGGGFVKPGGSLKLSCAASGFTFSNFAMSWVRQSPEKRLEWVAEINNGGNYAYYQDTVTGRFTISRDNAKNTLYLEMSSLRSEDTAMYFCAREDYVNYEAYFAYWGQGTTLTVSS
VL: SIVMTQTPLSLPVSLGDQASISCRSSQSIVHSNGNTYLEWYLQKPGQSPKLLIYRISNRFSGVPDRFSGSGSGTDFTLKISRVEAEDLGVYYCFQGSHVPYTFGGGTKLEIK
notes: also called Fab of 4H1; 4H1 Fab
B5: 5C2 (antibody, V domains shown)
VH: EVQLQESGPGLVAPSQSLSITCTVSGFSLTSYGVHWVRQPPGKGLEWLGVIWTGGSTNYNSALMSRLSISKDNSKSQVFLKMNSLQTDDTAMYYCARVDGYYYFDYWGQGTTLTVSS
VL: DIVMTQSTSSLSASLGDRVTISCRASQDISNYLNWYQQKPDGTVKLLIYYTSRLHSGVPSRFSGSGSGTDYSLTISNLEPEDIATYFCQQGDTLPPTFGGGTKLEIK
notes: also called monoclonal antibody 5C2
B6: 6E9 (Fab, V domains shown)
VH: QVQLKESGPGLVQPSQSLSITCTVSGFSLTSYGVHWVRQSPGKGLEWLGVIWSGGSTDYNAAFISRLSISKDNSKSQVFFKMNSLQANDTAIYYCARNDGYYYFDYWGQGTTLTVSS
VL: B5 VL with V3K, P80Q, T97A
notes: also called Fab of 6E9; 6E9 Fab

Experiments:
mouse RSPO2 [1] = molecular target: T6, mouse RSPO2 (mouse, UniProt Q8BFU0 22-205, limits assumed); assay: SPR (Biacore) with the Fab; table row RSPO2, Affinity (nM) Fab
T6 construct: also called mRSPO2
T6 sequence (Q8BFU0 22-205 limits assumed): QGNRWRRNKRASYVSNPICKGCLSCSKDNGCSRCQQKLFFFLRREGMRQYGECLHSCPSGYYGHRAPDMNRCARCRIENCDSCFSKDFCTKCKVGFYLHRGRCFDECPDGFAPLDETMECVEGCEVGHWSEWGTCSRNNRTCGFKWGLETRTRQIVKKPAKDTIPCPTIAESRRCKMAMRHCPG
Method: (§1) For kinetic measurements, two-fold serial dilutions of anti-RSPO Fabs were injected in HBS-P buffer (0.01M HEPES pH 7.4, 0.15M NaCl, 0.005% surfactant P20) at 25° C. with a flow rate of 30 μl/min. Association rates (kₒₙ) and dissociation rates (koff) were calculated using a simple one-to-one Langmuir binding model (BIAcore Evaluation Software version 3.2). The equilibrium dissociation constant (KD) was calculated as the ratio koff/kₒₙ.
(§2) Surface plasmon resonance was used to confirm binding specificities and affinities to human, mouse, and cynomolgus RSPOs. Fab fragments from antibody clones were digested, purified, and then assayed using a BIAcore™-2000 instrument for binding to recombinant proteins. Antibodies fell into three groups: those specific to RSPO2, those specific to RSPO3, and those with some degree of cross-reactivity (FIG. 5).

recombinant human RSPO3 [2] = molecular target: T1, recombinant human RSPO3; assay: SPR (Biacore) with the Fab; table row RSPO3, Affinity (nM) Fab
Method: as §1, §2

cynomolgus RSPO3 [3] = molecular target: T2, cynomolgus RSPO3; assay: as above
Method: as §1, §2

mouse RSPO3 [4] = molecular target: T3, mouse RSPO3; assay: as above
Method: as §1, §2

[5] = molecular target: T4, human RSPO3 with C-terminal HA tag, …; assay: IHC, FFPE 293 cell pellet, RSPO3 Hi
[6] = molecular target: T4, human RSPO3 with C-terminal HA tag, …; assay: IHC, FFPE 293 cell pellet, RSPO3 Low
[7] = molecular target: T4, human RSPO3 with C-terminal HA tag, …; assay: IHC, FFPE 293 cell pellet, RSPO3 Med
[8] = molecular target: T7, human RSPO1 with C-terminal HA tag, stably expressed in 293 cells (human, UniProt Q2MKA7 21-263); assay: IHC, FFPE 293 cell pellet, RSPO1 Hi; - = not significant staining
T7 construct: also called hRSPO1; RSPO1 Hi
T7 sequence (Q2MKA7 other isoform, or with tags, fused parts or gaps limits assumed): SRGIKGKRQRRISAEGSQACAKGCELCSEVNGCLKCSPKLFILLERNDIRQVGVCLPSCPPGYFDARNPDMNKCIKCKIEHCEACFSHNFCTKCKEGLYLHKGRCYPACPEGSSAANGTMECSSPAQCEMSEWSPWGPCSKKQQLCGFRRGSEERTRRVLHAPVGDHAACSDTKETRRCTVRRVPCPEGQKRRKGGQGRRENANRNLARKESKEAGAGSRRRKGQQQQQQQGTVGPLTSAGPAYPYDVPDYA

[9] = molecular target: T8, human RSPO4 with C-terminal HA tag, stably expressed in 293 cells (human, UniProt Q2I0M5 20-234); assay: IHC, FFPE 293 cell pellet, RSPO4 Hi; - = not significant staining
T8 construct: also called hRSPO4; RSPO4 Hi
T8 sequence (Q2I0M5 other isoform, or with tags, fused parts or gaps limits assumed): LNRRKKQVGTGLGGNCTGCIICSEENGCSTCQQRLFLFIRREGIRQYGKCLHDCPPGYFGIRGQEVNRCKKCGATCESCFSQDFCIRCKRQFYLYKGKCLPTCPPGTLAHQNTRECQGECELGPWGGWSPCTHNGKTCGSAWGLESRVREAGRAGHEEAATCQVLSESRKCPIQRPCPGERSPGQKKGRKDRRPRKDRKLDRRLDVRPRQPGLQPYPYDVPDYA

[10] = molecular target: T5, FLAG-tagged human RSPO3 (Genentech); assay: competitive binding ELISA: antibody titrated against LGR4-Fc (LGR4-ECD) binding to plate-coated hRSPO3; signal = bound LGR4-Fc, OD(450/630)/OD no antibody
Method: To measure the activity of anti-RSPO antibodies in blocking the binding of LGR4 and -5 ECDs to RSPOs, MaxiSorp 384-well microwell plates (Thermo Scientific Nunc, Roskilde, Denmark) were coated with 25 ul/well of 0.5 μg/ml hRSPO2 or hRSPO3 (Genentech) in 50 mM carbonate buffer, pH 9.6, overnight at 4° C. Plates were blocked with at 80 ul/well of 0.5% bovine serum albumin, 15 parts per million Proclin 300 in phosphate buffered saline (PBS), pH 7.4, for 1 hour. Serially diluted anti-RSPO antibodies ([…] in […] serial dilution plus buffer blank) containing 0.1 μg/ml LGR4-Fc or 0.015 μg/ml LGR5-Fc in assay buffer (0.5% BSA, 0.05% polysorbate 20, 15 parts per million Proclin 300 in PBS) were added to the plates at 25 ul/well. After a 2-hour incubation, LGR4-Fc and LGR5-Fc bound to the plates were detected using peroxidase labeled goat F(ab′)2 anti-human Fc (Jackson ImmunoResearch, West Grove, Pa.). After a 1 hour incubation, the substrate 3,3′,5,5′-tetramethyl benzidine (Moss Inc., Pasadena, Md.) was added to the plates and the reaction was stopped by adding 1 M phosphoric acid. Plates were washed with PBS, pH 7.4, containing 0.05% tween 20, between steps and all the incubation steps following the coating step were performed at room temperature on an orbital shaker. Absorbance was read at 450 nm on a multiskan Ascent reader (Thermo Scientific, Hudson, N.H.).

recombinant human RSPO3 [11] = molecular target: T1, recombinant human RSPO3; assay: SPR, BIAcore T200, huRSPO3 immobilized, antibody injected
Method: The binding affinity of the antibodies in this section was determined by BIAcore™ T200 Format. Briefly, BIAcore™ research grade CMS chips were activated with 1-ethyl-3-(3-dimethylaminopropyl) carbodiimide (EDC) and N-hydroxysuccinimide (NETS) reagents according to the supplier's instructions. huRSPO3 was immobilized to achieve approximately 50 response units (RU) in each flow cell. Unreacted coupling groups were blocked with 1M ethanolamine. For kinetics measurements, Four-fold serial dilutions of variant antibody was injected in HBS-P buffer (0.01M HEPES pH7.4, 0.15M NaCl, 0.005% surfactant P20) at 25° C. with a flow rate of 30 μl/min. Association rates (kon) and dissociation rates (koff) were calculated using a 1:1 Langmuir binding model (BIAcore™ T200 Evaluation Software version 2.0). The equilibrium dissociation constant (Kd) was calculated as the ratio koff/kon.

recombinant human RSPO2 = recombinant human RSPO2 (human, UniProt Q6UXX9 22-243); assay: cell-based or functional assay
Chain of recombinant human RSPO2 (Q6UXX9 22-243): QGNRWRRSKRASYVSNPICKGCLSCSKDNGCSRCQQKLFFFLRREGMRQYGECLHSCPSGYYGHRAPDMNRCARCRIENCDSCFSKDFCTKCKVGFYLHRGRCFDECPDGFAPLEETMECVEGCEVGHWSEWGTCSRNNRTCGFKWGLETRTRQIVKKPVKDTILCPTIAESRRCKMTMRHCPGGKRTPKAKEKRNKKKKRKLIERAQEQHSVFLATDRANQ

recombinant human RSPO3 [12] = molecular target: T1, recombinant human RSPO3; assay: cell-based or functional assay
cynomolgus RSPO3 [13] = molecular target: T2, cynomolgus RSPO3; assay: cell-based or functional assay
mouse RSPO3 [14] = molecular target: T3, mouse RSPO3; assay: cell-based or functional assay
cynomolgus RSPO2 = cynomolgus RSPO2 (cynomolgus, UniProt G7PCH9 22-243); assay: cell-based or functional assay
Chain of cynomolgus RSPO2 (G7PCH9 entry or part of it): as the sequence (Q6UXX9 22-243) above, with V160A, L165P, T178A counted along it

mouse RSPO2 [15] = molecular target: T6, mouse RSPO2; assay: cell-based or functional assay

Row | Binder | binding result (mouse RSPO2 [1]) | Kd (recombinant human RSPO3 [2]) [nM] | Kd (cynomolgus RSPO3 [3]) [nM] | Kd (mouse RSPO3 [4]) [nM] | percentage of cells staining [5] [%] | percentage of cells staining [6] [%] | percentage of cells staining [7] [%] | binding result [8] | binding result [9] | IC50 (read off the curve) [10] [µg/mL] | other results
1 | B1 | no binding | 0.073 | 1.9 | 3.36 | – | – | – | – | – | – | –
2 | B2 | – | – | – | – | 95 | 10 | 60 | no binding | no binding | ~0.1 | –
3 | B3 | – | – | – | – | – | – | – | – | – | – | Kd (recombinant human RSPO3 [11]): 0.07 nM
4 | B4 | no binding | 9.5 | 6.4 | 6.8 | – | – | – | – | – | – | –
5 | B5 | – | – | – | – | > 95 | 40 | 60 | no binding | no binding | ~0.1 | IC50, WNT luciferase reporter, bivalent antibody (recombinant human RSPO2): > 500 nM; IC50, WNT luciferase reporter, bivalent antibody (recombinant human RSPO3 [12]): 0.65 nM; IC50, WNT luciferase reporter, bivalent antibody (cynomolgus RSPO3 [13]): 1.3 nM; IC50, WNT luciferase reporter, bivalent antibody (mouse RSPO3 [14]): 0.47 nM; IC50, WNT luciferase reporter, bivalent antibody (cynomolgus RSPO2): > 500 nM; IC50, WNT luciferase reporter, bivalent antibody (mouse RSPO2 [15]): > 500 nM
6 | B6 | no binding | 67 | – | – | – | – | – | – | – | – | –

From patent US20180312579A1 (Genentech, published 2018)
